# Target: T1, Human extracellular EGFR-His6 (sEGFR-His6) (human, UniProt P00533 25-645)
# T1 construct: Monomer, expressed in HEK293E cells, glycosylated; also called sEGFR-6×His; monomeric sEGFR
# Assay: phage ELISA, coated sEGFR-His6
# Protocol: (§1) The plates were held overnight at room temperature, washed twice with TBST (0.5M Tris Base, 9% NaCl, 0.05% tween, pH 7.6), and loaded with 200 μL per well of Starting Block (Pierce). […] The plates were held at room temperature for 1.5 hours for blocking. Plates were then washed twice with TBST and phage were added. The phage solutions were crude phage supernatant from overnight cultures diluted four-fold with Starting Block. After a one-hour incubation, the plates were washed thrice with TBST and 100 μL of a 1:5000 dilution of phage binding antibody conjugate (a-M13-HRP) was added to the wells. […] After a one-hour incubation the plates were washed five times with TBST, 100 μL of POD (BM Chemiluminescence ELISA substrate; Roche Applied Science) was added, and chemiluminescene recorded.
row,Binder,binding result
1,"GGGDPCTWEVWGRECLQGGGSGGSGG (pIX phagemid display, on average one peptide per phage particle; also called PHPEP190; pIX-190; not shown: M13 phage coat protein pIX (MSVL...)) [P190 phage, pIX display (190-phagemid)]",no binding

# Target: T2, Control-MMB (CNTO 360) (Homo sapiens (Human), UniProt P0DOX5 111-449 = IgG part)
# T2 construct: Described as human IgG1 heavy chain dimer absent the variable and most of the CH1 domains; also called blank mimetibody scaffold protein
# Assay: phage ELISA, protein coated at 5 ug per mL
row,Binder,binding result
1,"GGGDPCTWEVWGRECLQGGGSGGSGG (pIX phagemid display, on average one peptide per phage particle; also called PHPEP190; pIX-190; not shown: M13 phage coat protein pIX (MSVL...)) [P190 phage, pIX display (190-phagemid)]",no binding

# Target: T1, Human extracellular EGFR-His6 …
# Assay: phage ELISA, protein coated at 5 ug per mL, chemiluminescence
# Protocol: as §1
row,Binder,Relative Signal
1,"GGGDPCTWEVWGRECLQGGGSGGSGG (pIX phagemid display, on average one peptide per phage particle; also called PHPEP190; pIX-190; not shown: M13 phage coat protein pIX (MSVL...)) [P190 phage, pIX display (190-phagemid)]",6

# Target: T3, sEGFR-MMB (dimeric sEGFR mimetibody) (human)
# T3 construct: Disulfide linked homodimer, expressed in 293E cells; also called sEGFR-Fc
# T3 sequence (chain, as listed by the source limits assumed): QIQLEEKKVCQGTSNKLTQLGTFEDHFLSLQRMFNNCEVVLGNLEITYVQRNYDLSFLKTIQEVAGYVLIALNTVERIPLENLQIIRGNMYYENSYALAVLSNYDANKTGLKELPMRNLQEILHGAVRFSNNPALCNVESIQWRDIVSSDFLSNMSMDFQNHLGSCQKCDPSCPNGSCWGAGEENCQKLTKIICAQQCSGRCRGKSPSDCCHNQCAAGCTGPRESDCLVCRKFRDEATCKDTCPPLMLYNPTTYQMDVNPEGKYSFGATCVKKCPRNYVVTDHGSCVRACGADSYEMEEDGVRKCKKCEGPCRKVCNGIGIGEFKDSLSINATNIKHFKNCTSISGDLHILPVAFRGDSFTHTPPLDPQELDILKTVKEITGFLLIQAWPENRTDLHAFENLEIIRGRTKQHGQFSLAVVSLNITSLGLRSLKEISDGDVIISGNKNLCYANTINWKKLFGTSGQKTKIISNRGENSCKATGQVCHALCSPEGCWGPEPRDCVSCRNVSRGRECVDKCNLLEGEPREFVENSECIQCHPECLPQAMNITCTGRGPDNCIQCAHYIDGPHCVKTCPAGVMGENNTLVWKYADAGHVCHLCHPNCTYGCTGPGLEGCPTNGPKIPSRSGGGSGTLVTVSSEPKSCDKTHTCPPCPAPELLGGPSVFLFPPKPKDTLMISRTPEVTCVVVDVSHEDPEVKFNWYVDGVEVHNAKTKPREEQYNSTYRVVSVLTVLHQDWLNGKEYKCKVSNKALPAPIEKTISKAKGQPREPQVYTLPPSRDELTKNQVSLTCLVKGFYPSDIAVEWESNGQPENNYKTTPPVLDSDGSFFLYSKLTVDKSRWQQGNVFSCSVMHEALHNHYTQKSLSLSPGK
# Assay: as above
# Protocol: as §1
row,Binder,Relative Signal
1,"GGGDPCTWEVWGRECLQGGGSGGSGG (pIX phagemid display, on average one peptide per phage particle; also called PHPEP190; pIX-190; not shown: M13 phage coat protein pIX (MSVL...)) [P190 phage, pIX display (190-phagemid)]",3940

# Target: T3, sEGFR-MMB (dimeric sEGFR mimetibody)
# Assay: ELISA, luminescence; sEGFR-MMB immobilized, MMB titrated
row,Binder,binding result
1,"P190-MMB construct 4314 (Fc fusion, GG, P190, Flex, human IgG4 hinge-CH2-CH3 with two Leu to Ala changes) GGDPCTWEVWGRECLQGGGSCPPCPAPEAAGGPSVFLFPPKPKDTLMISRTPEVTCVVVDVSQEDPEVQFNWYVDGVEVHNAKTKPREEQFNSTYRVVSVLTVLHQDWLNGKEYKCKVSNKGLPSSIEKTISKAKGQPREPQVYTLPPSQEEMTKNQVSLTCLVKGFYPSDIAVEWESNGQPENNYKTTPPVLDSDGSFFLYSRLTVDKSRWQEGNVFSCSVMHEALHNHYTQKSLSLSLGK",binds

# Target: T2, Control-MMB (CNTO 360)
# Assay: phage ELISA, luminescence; Control-MMB coated on the wells [panel A]
row,Binder,binding result
1,"GGGLPDDSLPELICKVRGGGGSGGSGG (pIX phagemid display; also called PP175; not shown: M13 phage coat protein pIX (MSVL...)) [P175 phage (S15, pIX)]",no binding
2,"GGGGPCVLIRDYYLLCLEGGGSGGSGG (pIX phagemid display; also called PP179; not shown: M13 phage coat protein pIX (MSVL...)) [P179 phage (S19, pIX)]",no binding

# Target: T3, sEGFR-MMB (dimeric sEGFR mimetibody)
# Assay: phage ELISA on coated sEGFR-MMB, chemiluminescence (background typically <200 units)
row,Binder,ELISA signal
1,"GGGELGLPTLLCWPTDTLGGGSGGSGG (pIX phagemid display; not shown: M13 phage coat protein pIX (MSVL...)) [SEQ ID NO: 11 (S15 hit, pIX phage)]",9380 units
2,"GGGPIDDESLPVLYCVTSGGGSGGSGG (pIX phagemid display; not shown: M13 phage coat protein pIX (MSVL...)) [SEQ ID NO: 17 (S15 hit, pIX phage)]",1780 units
3,"GGGVSGILPILVCHPAATGGGSGGSGG (pIX phagemid display; not shown: M13 phage coat protein pIX (MSVL...)) [SEQ ID NO: 12 (S15 hit, pIX phage)]",1110 units
4,"GGGPIFSSLPVLYCTSQLGGGSGGSGG (pIX phagemid display; not shown: M13 phage coat protein pIX (MSVL...)) [SEQ ID NO: 18 (S15 hit, pIX phage)]",1420 units
5,"GGGLPDDSLPELICKVRGGGGSGGSGG (pIX phagemid display; also called PP175; not shown: M13 phage coat protein pIX (MSVL...)) [P175 phage (S15, pIX)]",6790 units
6,"GGGGADTLPDLLCWESSLGGGSGGSGG (pIX phagemid display; not shown: M13 phage coat protein pIX (MSVL...)) [SEQ ID NO: 19 (S15 hit, pIX phage)]",5720 units
7,"GGGYRLFVDESIFFCTRLGGGSGGSGG (pIX phagemid display; not shown: M13 phage coat protein pIX (MSVL...)) [SEQ ID NO: 10 (S15 hit, pIX phage)]",3080 units
8,"GGGLPDLICAVDSGTSGAGGGSGGSGG (pIX phagemid display; not shown: M13 phage coat protein pIX (MSVL...)) [SEQ ID NO: 21 (S15 hit, pIX phage)]",1160 units
9,"GGGSTITSLPTLQCWPILGGGSGGSGG (pIX phagemid display; not shown: M13 phage coat protein pIX (MSVL...)) [SEQ ID NO: 16 (S15 hit, pIX phage)]",13300 units
10,"GGGTVFTLPELVCVVAGTGGGSGGSGG (pIX phagemid display; not shown: M13 phage coat protein pIX (MSVL...)) [SEQ ID NO: 20 (S15 hit, pIX phage)]",1520 units
11,"GGGNWFSLPTLLCFPLNPGGGSGGSGG (pIX phagemid display; not shown: M13 phage coat protein pIX (MSVL...)) [SEQ ID NO: 15 (S15 hit, pIX phage)]",3670 units
12,"GGGHVSLQSLPELICVVSGGGSGGSGG (pIX phagemid display; not shown: M13 phage coat protein pIX (MSVL...)) [SEQ ID NO: 14 (S15 hit, pIX phage)]",1360 units

# Target: T3, sEGFR-MMB (dimeric sEGFR mimetibody)
# Assay: as above
# Remark: another data set of the same source
row,Binder,ELISA signal
1,"GGGRGCVVFGDNIYCIVGGGSGGSGG (pIX phagemid display; not shown: M13 phage coat protein pIX (MSVL...)) [SEQ ID NO: 35 (S18 hit, pIX phage)]",22000 units
2,"GGGTDCVIFGLETYCLRGGGSGGSGG (pIX phagemid display; also called PP173; not shown: M13 phage coat protein pIX (MSVL...)) [P173 phage (S18, pIX)]",37900 units
3,"GGGTDCVRFGETIYCIVGGGSGGSGG (pIX phagemid display; not shown: M13 phage coat protein pIX (MSVL...)) [SEQ ID NO: 33 (S18 hit, pIX phage)]",13300 units
4,"GGGTDCIRFGVLWYCLVGGGSGGSGG (pIX phagemid display; not shown: M13 phage coat protein pIX (MSVL...)) [SEQ ID NO: 28 (S18 hit, pIX phage)]",4750 units
5,"GGGAKCIAFGNSVYCLNGGGSGGSGG (pIX phagemid display; not shown: M13 phage coat protein pIX (MSVL...)) [SEQ ID NO: 24 (S18 hit, pIX phage)]",31500 units
6,"GGGSDCVLFGSKLFCSAGGGSGGSGG (pIX phagemid display; not shown: M13 phage coat protein pIX (MSVL...)) [SEQ ID NO: 32 (S18 hit, pIX phage)]",35300 units
7,"GGGDSCIQFANLLYCAIGGGSGGSGG (pIX phagemid display; not shown: M13 phage coat protein pIX (MSVL...)) [SEQ ID NO: 27 (S18 hit, pIX phage)]",53200 units
8,"GGGYDCVSFGAVAYCPQGGGSGGSGG (pIX phagemid display; not shown: M13 phage coat protein pIX (MSVL...)) [SEQ ID NO: 34 (S18 hit, pIX phage)]",3200 units
9,"GGGRDCIIFDKTVYCVIGGGSGGSGG (pIX phagemid display; not shown: M13 phage coat protein pIX (MSVL...)) [SEQ ID NO: 25 (S18 hit, pIX phage)]",17100 units
10,"GGGAYCSFVAGDLVCQVGGGSGGSGG (pIX phagemid display; not shown: M13 phage coat protein pIX (MSVL...)) [SEQ ID NO: 30 (S18 hit, pIX phage)]",19800 units
11,"GGGRACITFGKVVYCEVGGGSGGSGG (pIX phagemid display; not shown: M13 phage coat protein pIX (MSVL...)) [SEQ ID NO: 29 (S18 hit, pIX phage)]",30700 units
12,"GGGKHCILFEKTVYCAKGGGSGGSGG (pIX phagemid display; not shown: M13 phage coat protein pIX (MSVL...)) [SEQ ID NO: 26 (S18 hit, pIX phage)]",9110 units
13,"GGGAGCIAFVDVVYCARGGGSGGSGG (pIX phagemid display; not shown: M13 phage coat protein pIX (MSVL...)) [SEQ ID NO: 23 (S18 hit, pIX phage)]",6380 units

# Target: T3, sEGFR-MMB (dimeric sEGFR mimetibody)
# Assay: as above
# Remark: another data set of the same source
row,Binder,ELISA signal
1,"GGGYDCMIRADGSLICWCGGGSGGSGG (pIX phagemid display; not shown: M13 phage coat protein pIX (MSVL...)) [SEQ ID NO: 38 (S19 hit, pIX phage)]",1290 units
2,"GGGAFCRLDFNQWLTCLVGGGSGGSGG (pIX phagemid display; not shown: M13 phage coat protein pIX (MSVL...)) [SEQ ID NO: 40 (S19 hit, pIX phage)]",2580 units
3,"GGGCDCREAVSASLVCRYGGGSGGSGG (pIX phagemid display; not shown: M13 phage coat protein pIX (MSVL...)) [SEQ ID NO: 41 (S19 hit, pIX phage)]",3350 units
4,"GGGGPCVLIRDYYLLCLEGGGSGGSGG (pIX phagemid display; also called PP179; not shown: M13 phage coat protein pIX (MSVL...)) [P179 phage (S19, pIX)]",14000 units
5,"GGGMICYLVDSGNIICYKGGGSGGSGG (pIX phagemid display; also called PP180; not shown: M13 phage coat protein pIX (MSVL...)) [P180 phage (S19, pIX)]",8810 units

# Target: T3, sEGFR-MMB (dimeric sEGFR mimetibody)
# Assay: as above
# Remark: another data set of the same source
row,Binder,ELISA signal
1,"GGGWMCFLEGYGASLMCQCGGGSGGSGG (pIX phagemid display; not shown: M13 phage coat protein pIX (MSVL...)) [SEQ ID NO: 44 (S20 hit, pIX phage)]",4800 units
2,"GGGPTCDSATRRVLTICADGGGSGGSGG (pIX phagemid display; not shown: M13 phage coat protein pIX (MSVL...)) [SEQ ID NO: 43 (S20 hit, pIX phage)]",5420 units
3,"GGGYICTPSDIDSWYICYLGGGSGGSGG (pIX phagemid display; not shown: M13 phage coat protein pIX (MSVL...)) [SEQ ID NO: 46 (S20 hit, pIX phage)]",6620 units
4,"GGGDSCCSFLTDGTVVCSLGGGSGGSGG (pIX phagemid display; not shown: M13 phage coat protein pIX (MSVL...)) [SEQ ID NO: 45 (S20 hit, pIX phage)]",9540 units
5,"GGGLLCATTSFRDWFVCFTGGGSGGSGG (pIX phagemid display; not shown: M13 phage coat protein pIX (MSVL...)) [SEQ ID NO: 49 (S20 hit, pIX phage)]",4510 units
6,"GGGSVCVGTAFPGWMVCGPGGGSGGSGG (pIX phagemid display; not shown: M13 phage coat protein pIX (MSVL...)) [SEQ ID NO: 47 (S20 hit, pIX phage)]",4770 units

# Target: T3, sEGFR-MMB (dimeric sEGFR mimetibody)
# Assay: as above
# Remark: another data set of the same source
# Protocol: The protein solution was removed and wells were rinsed twice with Tris-Buffered Saline containing 0.05% Tween-20 (TBS-T) using a plate washer (Embla). The wells were blocked with Starting Block in TBS for 1 hr at room temperature and rinsed twice with TBS-T. An equal volume of phage supernatant and Starting Block in TBS were incubated in the wells for 1 hr at room temperature, and the wells were rinsed five times with TBS-T. Anti-M13/horseradish peroxidase conjugate (Amersham), diluted 1:5000 in Starting Block in TBS, was added into the wells and incubated for 1 hour at room temperature, and then the wells were rinsed five times with TBS-T. Finally, chemiluminescent peroxidase substrate (Roche) was added to the wells, and chemiluminescence was measured on a Tecan plate reader.
row,Binder,ELISA signal
1,"GGGDACTMVFLWCSLGGGSGGSGG (pIX phagemid display; also called PP177; not shown: M13 phage coat protein pIX (MSVL...)) [P177 phage (S16, pIX)]",8660 units
2,"GGGRWCYFWWITICELGGGSGGSGG (pIX phagemid display; also called PP178; not shown: M13 phage coat protein pIX (MSVL...)) [P178 phage (S17, pIX)]",7910 units

# Target: Streptavidin alone
# Assay: phage ELISA, luminescence; streptavidin-coated wells without receptor [panel C]
# Protocol: Confirmatory Phage ELISA. Phage were amplified in XL-1 Blue host cells and purified by precipitation with 6% polyethylene glycol-8000/0.5 M sodium chloride. The precipitated phage were resuspended in phosphate-buffered saline in a volume that was 1/100th the original culture volume. […] The binding reaction was incubated for 1 hr at room temperature, and then bound phage were detected with anti-M13/HRP as above. For ELISAs with biotinylated receptors, streptavidin at 5 μg/ml was coated in the wells overnight at 4° C. […] The wells were rinsed with TBS-T and then blocked with Starting Block. Bound phage were washed and detected with anti-M13/HRP as described above.
row,Binder,binding result
1,"GGGLPDDSLPELICKVRGGGGSGGSGG (pIX phagemid display; also called PP175; not shown: M13 phage coat protein pIX (MSVL...)) [P175 phage (S15, pIX)]",no binding
2,"GGGGPCVLIRDYYLLCLEGGGSGGSGG (pIX phagemid display; also called PP179; not shown: M13 phage coat protein pIX (MSVL...)) [P179 phage (S19, pIX)]",no binding

# Target: T4, biotinylated sEGFR-His6 (human, UniProt P00533 25-645, biotinylated (reagent and sites not stated))
# T4 construct: Captured on streptavidin in the ELISA; also called b-sEGFR-His; b-sEGFR-His6
# Assay: phage ELISA, luminescence; biotinylated receptor captured on streptavidin [panel C]
row,Binder,binding result
1,"GGGLPDDSLPELICKVRGGGGSGGSGG (pIX phagemid display; also called PP175; not shown: M13 phage coat protein pIX (MSVL...)) [P175 phage (S15, pIX)]",no binding
